Laboratory results: PMC9482650, “Quantitative fragmentomics allow affinity mapping of interactomes” (Nature Communications, 2022)

Assays:
Assay in all cases: holdup assay
Design in all cases: key: below the threshold = too weak to quantify, mostly under pKd 3.1 to 4
Details in all cases: plain residues with an end cap or a label only (N-terminal biotin on a linker: ado-ado)
LNX1_3, Q8TBB1 = target: LNX1_3, Q8TBB1
LDB3, O75112 = target: LDB3, O75112
GRASP, Q7Z6J2 = target: GRASP, Q7Z6J2
IL16_1, Q14005 = target: IL16_1, Q14005
GRIP2_5, Q9C0E4 = target: GRIP2_5, Q9C0E4
GRIP1_3, Q9Y3R0 = target: T1, GRIP1_3, Q9Y3R0
T1 sequence (Q9Y3R0 247-346, limits assumed, looked up): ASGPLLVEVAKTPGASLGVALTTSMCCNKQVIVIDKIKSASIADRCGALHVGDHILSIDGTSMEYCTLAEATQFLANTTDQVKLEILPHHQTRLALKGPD

SCRIB_1, Q14160 = target: SCRIB_1, Q14160
NHERF4_4, Q86UT5 = target: NHERF4_4, Q86UT5
ARHGEF11, O15085 = target: T2, ARHGEF11, O15085
T2 sequence (O15085 42-136, limits assumed, looked up): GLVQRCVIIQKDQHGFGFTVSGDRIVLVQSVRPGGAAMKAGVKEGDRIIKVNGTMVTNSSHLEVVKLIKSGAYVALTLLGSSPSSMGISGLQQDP

RHPN1, Q8TCX5 = target: T3, RHPN1, Q8TCX5
T3 sequence (Q8TCX5 508-602, limits assumed, looked up): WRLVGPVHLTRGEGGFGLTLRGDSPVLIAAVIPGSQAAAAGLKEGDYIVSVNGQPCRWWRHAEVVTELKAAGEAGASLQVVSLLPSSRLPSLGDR

HTRA3, P83110 = target: T4, HTRA3, P83110
T4 sequence (P83110 354-453, limits assumed, looked up): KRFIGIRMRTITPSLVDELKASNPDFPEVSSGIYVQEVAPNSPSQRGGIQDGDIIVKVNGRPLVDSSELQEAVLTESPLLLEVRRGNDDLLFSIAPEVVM

DLG5_1, Q8TDM6 = target: DLG5_1, Q8TDM6
GRIP1_7, Q9Y3R0 = target: T5, GRIP1_7, Q9Y3R0
T5 sequence (Q9Y3R0 999-1096, limits assumed, looked up): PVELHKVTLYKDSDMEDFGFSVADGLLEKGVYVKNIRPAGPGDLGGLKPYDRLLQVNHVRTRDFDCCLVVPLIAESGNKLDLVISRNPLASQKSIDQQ

MAGI2_3, Q86UL8 = target: MAGI2_3, Q86UL8
DVL3, Q92997 = target: T6, DVL3, Q92997
T6 sequence (Q92997 244-331, limits assumed, looked up): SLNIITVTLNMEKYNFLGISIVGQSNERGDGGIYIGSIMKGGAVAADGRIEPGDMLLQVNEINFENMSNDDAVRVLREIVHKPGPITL

PDZRN4_1, Q6ZMN7 = target: PDZRN4_1, Q6ZMN7
TJP1_3, Q07157 = target: TJP1_3, Q07157
Inadl_10, Q8NI35 = target: Inadl_10, Q8NI35
TJP1_2, Q07157 = target: TJP1_2, Q07157
LNX1_1, Q8TBB1 = target: LNX1_1, Q8TBB1
LRRC7, Q96NW7 = target: T7, LRRC7, Q96NW7
T7 sequence (Q96NW7 1440-1537, limits assumed, looked up): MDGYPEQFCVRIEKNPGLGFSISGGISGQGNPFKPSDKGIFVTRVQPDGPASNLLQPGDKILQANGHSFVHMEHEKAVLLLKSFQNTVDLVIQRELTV

LNX2_3, Q8N448 = target: T8, LNX2_3, Q8N448
T8 sequence (Q8N448 463-564, limits assumed, looked up): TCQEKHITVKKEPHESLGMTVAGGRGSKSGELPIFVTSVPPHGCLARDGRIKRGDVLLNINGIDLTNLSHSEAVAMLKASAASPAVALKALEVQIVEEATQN

NHERF4_2, Q86UT5 = target: NHERF4_2, Q86UT5
CARD11, Q9BXL7 = target: T9, CARD11, Q9BXL7
T9 sequence (Q9BXL7 662-765, limits assumed, looked up): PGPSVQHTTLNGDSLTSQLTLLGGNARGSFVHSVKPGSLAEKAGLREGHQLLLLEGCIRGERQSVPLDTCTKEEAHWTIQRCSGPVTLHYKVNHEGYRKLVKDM

MAGI1_2, Q96QZ7 = target: MAGI1_2, Q96QZ7
NHERF4_1, Q86UT5-2 = target: NHERF4_1, Q86UT5-2
GIPC2, Q8TF65 = target: GIPC2, Q8TF65
MPDZ_12, O75970 = target: T10, MPDZ_12, O75970
T10 sequence (O75970 1857-1958, limits assumed, looked up): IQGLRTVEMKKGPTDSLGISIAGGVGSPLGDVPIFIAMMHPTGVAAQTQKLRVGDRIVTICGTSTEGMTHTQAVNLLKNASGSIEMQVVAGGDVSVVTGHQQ

Chain of LNX1_1, Q8TBB1 (Q8TBB1 261-371): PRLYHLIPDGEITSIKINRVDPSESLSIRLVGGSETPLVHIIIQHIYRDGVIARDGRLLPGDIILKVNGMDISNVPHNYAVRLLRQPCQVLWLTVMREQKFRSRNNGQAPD
Chain of LDB3, O75112 (O75112 1-94): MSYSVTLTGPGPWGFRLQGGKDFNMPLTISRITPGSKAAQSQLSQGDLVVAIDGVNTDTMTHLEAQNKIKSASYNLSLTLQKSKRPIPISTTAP
Chain of SCRIB_1, Q14160 (Q14160 718-814): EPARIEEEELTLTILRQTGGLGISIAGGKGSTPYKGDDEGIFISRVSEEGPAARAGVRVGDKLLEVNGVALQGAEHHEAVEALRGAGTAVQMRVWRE
Chain of GIPC2, Q8TF65 (Q8TF65 112-203): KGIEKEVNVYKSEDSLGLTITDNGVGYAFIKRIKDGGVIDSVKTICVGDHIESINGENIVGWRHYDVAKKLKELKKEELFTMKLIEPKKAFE
Chain of GRIP2_5, Q9C0E4 (Q9C0E4 544-642): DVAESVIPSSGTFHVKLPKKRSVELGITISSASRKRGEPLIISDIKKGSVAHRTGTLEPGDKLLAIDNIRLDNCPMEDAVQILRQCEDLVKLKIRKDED
Chain of PDZRN4_1, Q6ZMN7 (Q6ZMN7 213-318): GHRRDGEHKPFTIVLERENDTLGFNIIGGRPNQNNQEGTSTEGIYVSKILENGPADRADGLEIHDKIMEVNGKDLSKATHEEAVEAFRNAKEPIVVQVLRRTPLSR
Chain of TJP1_2, Q07157 (Q07157 181-274): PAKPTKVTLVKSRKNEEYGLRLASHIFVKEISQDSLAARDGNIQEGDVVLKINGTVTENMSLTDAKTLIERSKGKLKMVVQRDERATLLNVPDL
Chain of NHERF4_4, Q86UT5 (Q86UT5 464-550): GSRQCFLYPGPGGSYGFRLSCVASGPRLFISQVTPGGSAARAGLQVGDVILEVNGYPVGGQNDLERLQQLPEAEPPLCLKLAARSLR
Chain of MAGI1_2, Q96QZ7 (Q96QZ7 456-580): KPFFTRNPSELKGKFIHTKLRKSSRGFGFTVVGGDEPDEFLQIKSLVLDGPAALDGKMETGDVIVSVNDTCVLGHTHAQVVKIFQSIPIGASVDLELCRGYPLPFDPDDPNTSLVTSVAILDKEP
Chain of GRASP, Q7Z6J2 (Q7Z6J2 96-193): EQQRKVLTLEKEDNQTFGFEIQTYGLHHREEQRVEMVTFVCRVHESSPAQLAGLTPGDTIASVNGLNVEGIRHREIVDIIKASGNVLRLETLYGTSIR
Chain of NHERF4_1, Q86UT5-2 (Q86UT5 other isoform, or with tags, fused parts or gaps): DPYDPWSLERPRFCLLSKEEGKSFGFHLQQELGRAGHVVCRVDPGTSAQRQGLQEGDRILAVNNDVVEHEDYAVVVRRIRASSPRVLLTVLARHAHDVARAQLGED
Chain of TJP1_3, Q07157 (Q07157 416-512): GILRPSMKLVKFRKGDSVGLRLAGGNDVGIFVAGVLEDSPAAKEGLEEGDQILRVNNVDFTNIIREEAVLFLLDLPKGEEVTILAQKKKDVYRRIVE
Chain of LNX1_3, Q8TBB1 (Q8TBB1 500-596): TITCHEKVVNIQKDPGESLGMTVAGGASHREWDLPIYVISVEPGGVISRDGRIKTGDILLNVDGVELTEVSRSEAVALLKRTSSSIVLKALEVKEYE
Chain of Inadl_10, Q8NI35 (Q8NI35 1673-1763): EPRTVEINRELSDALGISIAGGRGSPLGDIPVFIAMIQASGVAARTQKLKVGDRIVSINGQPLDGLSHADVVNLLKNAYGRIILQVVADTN
Chain of MAGI2_3, Q86UL8 (Q86UL8 600-682): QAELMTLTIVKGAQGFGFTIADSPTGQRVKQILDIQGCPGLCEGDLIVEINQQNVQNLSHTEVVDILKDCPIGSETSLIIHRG
Chain of DLG5_1, Q8TDM6 (Q8TDM6 617-713): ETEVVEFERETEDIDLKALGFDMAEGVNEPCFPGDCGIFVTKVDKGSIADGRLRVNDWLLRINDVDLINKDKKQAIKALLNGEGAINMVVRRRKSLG
Chain of NHERF4_2, Q86UT5 (Q86UT5 220-308): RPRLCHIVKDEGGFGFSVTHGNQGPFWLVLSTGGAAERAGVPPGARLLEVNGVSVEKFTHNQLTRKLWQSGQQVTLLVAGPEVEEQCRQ
Chain of IL16_1, Q14005 (Q14005 210-306): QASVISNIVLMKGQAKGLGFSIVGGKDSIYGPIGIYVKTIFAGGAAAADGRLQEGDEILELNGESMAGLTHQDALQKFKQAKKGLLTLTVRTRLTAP

B1: CTBP1, Q13363 (peptide)
chain: ADRDHASDQL
pKd (LNX1_3, Q8TBB1): below the threshold
pKd (LDB3, O75112): below the threshold
pKd (GRASP, Q7Z6J2): below the threshold
pKd (IL16_1, Q14005): below the threshold
pKd (GRIP2_5, Q9C0E4): below the threshold
pKd (GRIP1_3, Q9Y3R0): below the threshold
pKd (SCRIB_1, Q14160): below the threshold
pKd (NHERF4_4, Q86UT5): below the threshold
pKd (ARHGEF11, O15085): below the threshold
pKd (RHPN1, Q8TCX5): below the threshold
pKd (HTRA3, P83110): below the threshold
pKd (DLG5_1, Q8TDM6): below the threshold
pKd (GRIP1_7, Q9Y3R0): below the threshold
pKd (MAGI2_3, Q86UL8): below the threshold
pKd (DVL3, Q92997): below the threshold
pKd (PDZRN4_1, Q6ZMN7): below the threshold
pKd (TJP1_3, Q07157): below the threshold
pKd (Inadl_10, Q8NI35): below the threshold
pKd (TJP1_2, Q07157): below the threshold
pKd (LNX1_1, Q8TBB1): below the threshold
pKd (LRRC7, Q96NW7): below the threshold
pKd (LNX2_3, Q8N448): below the threshold
pKd (NHERF4_2, Q86UT5): below the threshold
pKd (CARD11, Q9BXL7): below the threshold
pKd (MAGI1_2, Q96QZ7): below the threshold
pKd (NHERF4_1, Q86UT5-2): 4.05
pKd (GIPC2, Q8TF65): below the threshold
pKd (MPDZ_12, O75970): below the threshold
